Measurements published in patent publication US20110086797.

Molecular target: elongation factor G (EF-G) of B. subtilis, P80868
Sequence (P80868 2-692): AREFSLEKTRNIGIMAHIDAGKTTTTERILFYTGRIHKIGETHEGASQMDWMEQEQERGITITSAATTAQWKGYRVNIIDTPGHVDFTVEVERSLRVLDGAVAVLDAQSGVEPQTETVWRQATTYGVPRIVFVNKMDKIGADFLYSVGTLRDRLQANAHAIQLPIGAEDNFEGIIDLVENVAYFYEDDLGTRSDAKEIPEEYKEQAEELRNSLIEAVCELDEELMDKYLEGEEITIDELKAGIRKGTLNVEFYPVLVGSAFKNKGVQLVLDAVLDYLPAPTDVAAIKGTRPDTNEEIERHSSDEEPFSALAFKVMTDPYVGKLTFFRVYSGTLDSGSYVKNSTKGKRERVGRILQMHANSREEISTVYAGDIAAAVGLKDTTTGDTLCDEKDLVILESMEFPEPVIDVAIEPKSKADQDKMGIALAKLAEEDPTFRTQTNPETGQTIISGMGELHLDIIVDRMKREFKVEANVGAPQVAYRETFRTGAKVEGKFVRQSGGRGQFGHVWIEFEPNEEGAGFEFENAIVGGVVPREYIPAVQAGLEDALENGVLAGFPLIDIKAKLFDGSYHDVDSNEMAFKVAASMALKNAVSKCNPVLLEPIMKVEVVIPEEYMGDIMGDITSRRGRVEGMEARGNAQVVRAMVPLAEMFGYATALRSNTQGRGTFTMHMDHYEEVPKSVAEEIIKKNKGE

B1: PrkC Ser/Thr kinase of B. subtilis (protein)
chain: MLIGKRISGRYQILRVIGGGGMANVYLAEDIILDREVAIKILRFDYANDNEFIRRFRREAQSASSLDHPNIVSIYDLGEEDDIYYIVMEYVEGMTLKEYITANGPLHPKEALNIMEQIVSAIAHAHQNQIVHRDIKPHNILIDHMGNIKVTDFGIATALSSTTITHTNSVLGSVHYLSPEQARGGLATKKSDIYALGIVLFELLTGRIPFDGESAVSIALKHLQAETPSAKRWNPSVPQSVENIILKATAKDPFHRYETAEDMEADIKTAFDADRLNEKRFTIQEDEEMTKAIPIIKDEELAKAAGEKEAEVTTAQENKTKKNGKRKKWPWVLLTICLVFITAGILAVTVFPSLFMPKDVKIPDVSGMEYEKAAGLLEKEGLQVDSEVLEISDEKIEEGLMVKTDPKADTTVKEGATVTLYKSTGKAKTEIGDVTGQTVDQAKKALKDQGFNHVTVNEVNDEKNAGTVIDQNPSAGTELVPSEDQVKLTVSIGPEDITLRDLKTYSKEAASGYLEDNGLKLVEKEAYSDDVPEGQVVKQKPAAGTAVKPGNEVEVTFSLGPEKKPAKTVKEKVKIPYEPENEGDELQVQIAVDDADHSISDTYEEFKIKEPTERTIELKIEPGQKGYYQVMVNNKVVSYKTIEYPKDE
  EF-G phosphorylation (immunoprecipitation with anti-EF-G, western blot with anti-phosphothreonine antibody): EF-G (as identified by probing the same fractions with the α-EF-G) phosphorylation increased following exposure to cell free supernatant (FIG. 24D). In contrast, no change in phosphorylation was observed in spores lacking PrkC.
